Tested on: T1, Nc1ccn([C@@H]2S[C@H](CO)[C@@H](O)[C@@H]2O)c(=O)n1
T1 construct: endogenous in cells; host or cells: Molt-4 cells (enzyme purified from the cells)
Test: purified protein, by the assay type
Assay type: biochemical
Conditions: other: dCyd kinase activity from Molt-4 cells
Procedure: Each assay was done in duplicate and the kinetic constants were determined from linear double-reciprocal plots of 1/velocity versus 1/concentration of the substrate. The best line was determined by linear regression from at least 5 datum points, and the Km and Vmax were determined from the x and y intercepts.

Chain of dCyd Kinase Activity Isolated from Molt-4 Cells (Homo sapiens) (chain, as listed by the source): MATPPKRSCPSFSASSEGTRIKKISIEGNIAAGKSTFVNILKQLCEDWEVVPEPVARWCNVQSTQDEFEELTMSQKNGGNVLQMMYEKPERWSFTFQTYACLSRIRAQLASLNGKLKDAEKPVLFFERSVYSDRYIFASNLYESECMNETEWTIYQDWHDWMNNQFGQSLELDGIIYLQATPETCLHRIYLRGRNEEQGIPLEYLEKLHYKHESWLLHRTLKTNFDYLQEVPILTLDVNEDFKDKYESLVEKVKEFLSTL

## dCyd Kinase Activity Isolated from Molt-4 Cells (Homo sapiens)
  Km: 93 µM
